Legend:
[1] = tested on: differentiated human TM (HTM) cell cultures; assay: Differentiated HTM cell cultures incubated with recombinant protein; extracellular matrix and cell contacts by immunofluorescence, phase microscopy and western blot; type: cell-based; conditions: for disruption of cell contacts or matrix assembly: pentapeptides administered separately to HTM cell cultures
Protocol: (§1) Differentiated human TM (HTM) cell cultures were incubated with a recombinant Hep II domain protein for eighteen hours. The effect on the extracellular matrix and cell contacts were observed using immunofluorescence microcopy, phase microscopy and western blot. Differentiated HTM cultures look like endothelial cells and form cell to cell junctions and closely resemble TM cells in vivo. Differentiated HTM cells also secrete matrix proteins such as fibronectin, type IV collagen and laminin. Non-differentiated cells lack these qualities and are less suitable for in vitro analysis methods. Cells were grown as described in Polansky J R, Weinreb R, Alvarado J A. Studies on human trabecular cells propagated in vitro. Vis Res 1981;21 :155-60 and Polansky J R, Weinreb R N, Baxter J D, Alvarado J. Human trabecular cells. I. Establishment in tissue culture and growth characteristics. Invest Ophthalmol Vis Sci 1979;18:1043-9, both incorporated by reference in their entirety.
After incubation, the turnover of fibronectin fibrils, a good indicator of matrix formation, was studied. […] The Hep II protein was a GST protein. The GST portion was cleaved with thrombin as described by Bultmann, H., et al., Fibronectin Fibrilogenesis Involves the Heparin II Binding Domains of Fibronectin, J. Biol. Chem. 273:2601-2609 (1998).
To identify the active region of the Hep II domain, smaller fragments including either the Type III repeat 12, the Type III repeat 14, or the Type III repeats 13 and 14 were produced as recombinant GST proteins, as above.

[2] = tested on: vinculin; assay: Tyrosine phosphorylation of vinculin after treatment; type: cell-based, human; conditions: after treatment of the eye with the Hep II domain
Protocol: as §1
Further, a number of morphological changes also indicate disrupted cell contacts. […] Vinculin is a major structural protein that maintain cell-cell and cell-adhesion contracts. Changes in its phosphorylation state indicate that the treatment has biochemically affected the molecules that maintain cell-cell and cell-adhesion contracts. […]

[3] = tested on: human trabecular meshwork organ culture (eye); assay: Human eye organ culture perfusion, paired control and test eyes, IOP
Protocol: While this effect on matrix formation was relatively slow, the Hep II domain acts quickly in intact eyes to increase outflow facility. In human eye culture studies using pairs of control and test eyes, as described by Johnson, D H and Tschumper, R C. (1987) Human Trabecular Meshwork Organ Culture. IVOS 28:945-953, incorporated by reference, a baseline IOP was determined, pumps were turned off and the Hep II domain was injected at 13.8 μM into the anterior chamber of one eye. The pumps were kept off for four hours to allow the Hep II domain to mix with the contents of the anterior chamber. After four hours, the treated eyes were perfused with buffer containing the Hep II domain at 13.8 μM for twenty-four hours. Untreated eyes were perfused with buffer. […] After twenty-four hours, the pumps were turned off and the perfusate in both eyes was replaced with fresh buffer without the protein.

[4] = tested on: Schlemm's canal endothelium and extracellular matrix of the eye; assay: Light and electron microscopy of fixed treated and untreated organ-cultured eyes; set-up: species or system human; conditions: fixed eyes after perfusion
Description: The treated and untreated eyes were then fixed and prepared for both light and electron microscopy. […] Part of the inner side of the cannel was disrupted and small discontinuous cellular processes replaced a continuous cell layer found in a normal eye. […] These changes can account for the increased outflow in the presence of the Hep II domain since they would have created additional spaces or openings for fluid flow.

Molecule	disruption of cell contacts or matrix assembly [1]	level of fibronectin matrixes (turnover of fibronectin fibrils) ([1]; HTM cell cultures, 4.6 μM, eighteen hours incubation)	morphological changes indicating disrupted cell contacts ([1]; compared to untreated cultures)	morphological changes at higher peptide concentrations ([1]; higher peptide concentrations)	tyrosine phosphorylation of vinculin [2]	decrease in IOP ([3]; 13.8 μM injected into the anterior chamber, pumps off four hours, then perfusion at 13.8 μM for twenty-four hours, versus baseline) [%]	pressure in the treated eye after replacement of perfusate with buffer without the protein ([3]; after twenty-four hours perfusion, absence of the Hep II domain)	treated organ-cultured eyes with lower IOP after treatment ([3]; plurality of assays, number of treated eyes)	electron microscopy, endothelium in Schlemm's canal [4]	electron microscopy, extracellular matrix in the juxtacanalicular region [4]	light microscopy, treated versus untreated eyes [4]
PRARI (listed as Homo sapiens)	neither disrupted cell contacts or matrix assembly										
IDAPS (listed as Homo sapiens)	neither disrupted cell contacts or matrix assembly										
Hep II domain: recombinant 33 kilodalton Hep II domain of fibronectin containing type III repeats 12, 13 and 14 (SEQ ID NO:2) (protein, listed as Homo sapiens) IPAPTDLKFTQVTPTSLSAQWTPPNVQLTGYRVRVTPKEKTGPMKEINLAPDSSSVVVSGLMVATKYEVSVYALKDTLTSRPAQGVVTTLENVSPPRRARVTDATETTITISWRTKTETITGFQVDAVPANGQTPIQRTIKPDVRSYTITGLQPGTDYKIYLYTLNDNARSSPVVIDASTAIDAPSNLRFLATTPNSLLVSWQPPRARITGYIIKYEKPGSPPREVVPRPRPGVTEATITGLEPGTEYTIYVIALKNNQKSEPLIGRKKT		dramatic decrease	increase in the number of retraction fibers	retraction and rounding up of many cells	significant increase	32	returned to the baseline level	six of seven	altered	altered and amorphous material appeared in the cribiform meshwork	not distinguishable

— US20040175377A1, “Agent and method for reducing intraocular pressure” (priority 2000, published 2004)
